The Immune Epitope Database (IEDB)

Experiments:
Assay in all cases: IEDB peptide-MHC binding, purified MHC/competitive/radioactivity; filed as Kd, often an IC50 or EC50 that approximates it; ≥ and ≤ were set here for values at or beyond the usual limits of such assays
[1] = molecular target: HLA-A*33:01
[2] = molecular target: HLA-A*03:01
[3] = molecular target: HLA-A*31:01
[4] = molecular target: HLA-A*11:01
[5] = molecular target: HLA-A*68:01
[6] = molecular target: HLA-A*02:03; conditions: source organism: Dengue virus 3 Martinique/1243/1999
[7] = source organism: SARS coronavirus Tor2
[8] = source organism: Vaccinia virus WR
[9] = source organism: Lassa virus Josiah
[10] = source organism: Lymphocytic choriomeningitis virus (strain Armstrong)
[11] = source organism: Mammarenavirus whitewaterense
[12] = source organism: Mammarenavirus brazilense
[13] = source organism: Mammarenavirus guanaritoense

Sequence | Kd [1, 8] [µM] | Kd [2, 8] [nM] | Kd [3, 8] [nM] | Kd [4, 8] [nM] | Kd [5, 8] [nM] | other results
QQLRVESSSK | – | – | – | – | – | Kd [1, 7]: 1.26 µM; Kd [2, 7]: 588 nM; Kd [3, 7]: 435 nM; Kd [4, 7]: 721 nM; Kd [5, 7]: 1950 nM
QSLCFLLTQK | – | – | – | – | – | Kd [1, 7]: 1.47 µM; Kd [2, 7]: 6.2 nM; Kd [3, 7]: 54.2 nM; Kd [4, 7]: 10.8 nM; Kd [5, 7]: 63.8 nM
QTTVNTLSER | 0.155 | 1520 | 21.7 | 76.8 | 5.22 | –
RLASNAICSA | – | – | – | – | – | Kd [6]: 135 nM
SAFNDDGIY | ≥ 77.7 | ≥ 78000 | 9580 | 14000 | 1860 | –
SAVFKDSFLR | 0.372 | 664 | 23.9 | 45.9 | 18.2 | –
SAVVDNKLK | ≥ 77.7 | ≥ 23600 | ≥ 58900 | 508 | 580 | –
SCPKPHRLNH | – | – | – | – | – | Kd [1, 9]: ≥ 34.3 µM; Kd [2, 9]: ≥ 21300 nM; Kd [3, 9]: ≥ 38500 nM; Kd [4, 9]: ≥ 69700 nM; Kd [5, 9]: ≥ 70100 nM
SCQGSDDIR | – | – | – | – | – | Kd [1, 10]: ≥ 51.4 µM; Kd [2, 10]: ≥ 78000 nM; Kd [3, 10]: ≥ 33900 nM; Kd [4, 10]: ≥ 77900 nM; Kd [5, 10]: ≥ 21800 nM
SIYSRPKIK | ≥ 37.9 | 2.67 | 4890 | 6.62 | 398 | –
SLCFLLTQK | – | – | – | – | – | Kd [1, 7]: 5.56 µM; Kd [2, 7]: 25.6 nM; Kd [3, 7]: 231 nM; Kd [4, 7]: 22.7 nM; Kd [5, 7]: 1200 nM
SLLTNDTTWI | – | – | – | – | – | Kd [1, 11]: ≥ 70 µM; Kd [2, 11]: ≥ 70000 nM; Kd [3, 11]: 17000 nM; Kd [4, 11]: ≥ 69700 nM; Kd [5, 11]: ≥ 70100 nM
SQIQLSLLK | – | – | – | – | – | Kd [1, 7]: ≥ 77.7 µM; Kd [2, 7]: 892 nM; Kd [3, 7]: 18000 nM; Kd [4, 7]: 29.2 nM; Kd [5, 7]: 6270 nM
SSFIMRNFLR | 0.87 | 2100 | 1.3 | 8.89 | 13.6 | –
SVTLDFTKFH | – | – | – | – | – | Kd [1, 12]: 9.44 µM; Kd [2, 12]: 7520 nM; Kd [3, 12]: 10100 nM; Kd [4, 12]: 7100 nM; Kd [5, 12]: 18400 nM
TILLSDKGK | ≥ 44.3 | 1540 | 7390 | 81.2 | 198 | –

Sequence | Kd [1, 8] [µM] | Kd [2, 8] [nM] | Kd [3, 8] [nM] | Kd [4, 8] [nM] | Kd [5, 8] [nM] | other results
TLAVPYNMR | – | – | – | – | – | Kd [1, 7]: 0.126 µM; Kd [2, 7]: 995 nM; Kd [3, 7]: 152 nM; Kd [4, 7]: 3230 nM; Kd [5, 7]: 9.36 nM
TLDESFLGR | – | – | – | – | – | Kd [1, 7]: 1.12 µM; Kd [2, 7]: 1430 nM; Kd [3, 7]: 841 nM; Kd [4, 7]: 669 nM; Kd [5, 7]: 947 nM
TLSPAHLINK | 11.4 | 2.05 | 168 | 1.29 | 120 | –
TMCTEETKR | 12.4 | ≥ 78000 | 2980 | ≥ 77900 | 121 | –
TTGIGYQPYR | – | – | – | – | – | Kd [1, 7]: 1.74 µM; Kd [2, 7]: 6450 nM; Kd [3, 7]: 105 nM; Kd [4, 7]: 1140 nM; Kd [5, 7]: 9.5 nM
TVKTNLYMK | 6.32 | 3680 | 81.7 | 16.2 | 104 | –
VCEEFFHQK | – | – | – | – | – | Kd [1, 13]: ≥ 77.7 µM; Kd [2, 13]: 11600 nM; Kd [3, 13]: ≥ 22200 nM; Kd [4, 13]: 621 nM; Kd [5, 13]: 5950 nM
VIPFDDIVR | 0.302 | ≥ 78000 | 338 | 9600 | 174 | –
VIVVPVIDR | ≥ 77.7 | ≥ 78000 | 9910 | 675 | 279 | –
VMANNVKKK | ≥ 75.2 | 31.8 | 3910 | 215 | 6170 | –
VSIILANERY | 19 | 12800 | 8590 | 1420 | 3850 | –
VTISKDNLER | 0.357 | ≥ 39000 | 118 | 13.7 | 62.6 | –
VTSLAIKNYY | 0.42 | 206 | 281 | 21.7 | 112 | –
VVKLTAVCMK | 2.68 | 115 | 208 | 121 | 723 | –
YTVEFDRDK | ≥ 44.8 | ≥ 78000 | ≥ 33400 | 18900 | 1.25 | –
YVIRHVDGK | ≥ 77.7 | 1450 | ≥ 77900 | 10.2 | 1.72 | –
